The values below come from article doi:10.1101/2021.04.07.438830 (bioRxiv, 2021).

In this assay the target is T1, GST-KPC2 (UniProt Q9BSL1 1-405).
T1 sequence: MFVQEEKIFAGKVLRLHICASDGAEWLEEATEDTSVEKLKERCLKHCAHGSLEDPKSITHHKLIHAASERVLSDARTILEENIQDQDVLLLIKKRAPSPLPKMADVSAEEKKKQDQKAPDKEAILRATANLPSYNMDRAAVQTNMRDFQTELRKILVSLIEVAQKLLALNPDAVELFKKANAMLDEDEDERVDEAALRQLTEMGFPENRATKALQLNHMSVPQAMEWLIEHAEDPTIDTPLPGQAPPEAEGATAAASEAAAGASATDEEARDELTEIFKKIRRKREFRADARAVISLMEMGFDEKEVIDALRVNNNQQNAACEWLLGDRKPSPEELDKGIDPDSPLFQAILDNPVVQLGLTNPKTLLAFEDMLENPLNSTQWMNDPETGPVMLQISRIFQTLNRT
The experiment in a line: pull-down.

B1: GST-p65 (1-307) (domain or fragment)
chain: MDELFPLIFPAEPAQASGPYVEIIEQPKQRGMRFRYKCEGRSAGSIPGERSTDTTKTHPTIKINGYTGPGTVRISLVTKDPPHRPHPHELVGKDCRDGFYEAELCPDRCIHSFQNLGIQCVKKRDLEQAISQRIQTNNNPFQVPIEEQRGDYDLNAVRLCFQVTVRDPSGRPLRLPPVLSHPIFDNRAPNTAELKICRVNRNSGSCLGGDEIFLLCDKVQKEDIEVYFTGPGWEARGSFSQADVHRQVAIVFRTPPYADPSLQAPVRVSMQLRRPSDRELSEPMEFQYLPDTDDRHRIEEKRKRTYE
B1: the binding result is “binds”.
